Assay results published in patent US20230212549A1 (3B PHARMACEUTICALS, published 2023).
“And” between values parts separate entries of the source, which are not always exact repeats. Equal values may be shown once. Numbered stars: 1 amine (or outer) side, 2 acyl side, 3 side chain; on linkers, the order of the positions; unused ones are H or OH. Bridge positions count the residues as written; N and C are the ends. Square brackets hold non-standard residues; d marks the D form. Primed or numbered codes have the meaning given here. * marks the point of attachment. Ttds″ = 1,13-diamino-4,7,10-trioxatridecan-succinamic acid spacer, O=C(CCC(=O)[*:2])NCCCOCCOCCOCCCN[*:1]; Ttds = 1,13-diamino-4,7,10-trioxatridecan-succinamic acid, O=C(CCC(=O)[*:2])NCCCOCCOCCOCCCN[*:1]; DOTA = O=C(O)CN1CCN(CC(=O)O)CCN(CC(=O)*)CCN(CC(=O)O)CC1; mXylylene = c1cc(C[*:1])cc(C[*:2])c1

Assays:
[1] = target: T1, fibroblast activation protein (FAP) on FAP-expressing human WI-38 fibroblasts (human, UniProt Q12884 1-760); test: competitive FACS, WI-38 cells, vs Cy5 tracer m3; B = pIC50 7.1-8.0
T1 construct: also called human FAP

[2] = target: Recombinant human FAP (R&D systems, #3715-SE) (human, UniProt Q12884 26-760); test: cell-based or functional assay

Binder	pIC50 Category (FACS) [1]	pIC50 Category (Activity) [2]
MCPPTQFC (N-term acetyl; D-Met1; Cys2/Cys8 thioether-bridged by tMeBn carrying DOTA-AET; C-term free acid, also called 3BP-3682) [Ac-met-[Cys(tMeBn(DOTA-AET))-Pro-Pro-Thr-Gln-Phe-Cys]-OH]	7.1 pIC50 and 8 pIC50	7.1 pIC50 and 8 pIC50
{DOTA}-[Ttds″]ECPPTEFCDHFRD-NH2 (linker 3-9 via mXylylene; SMILES C[C@@H](O)[C@@H]1NC(=O)[C@@H]2CCCN2C(=O)[C@@H]2CCCN2C(=O)[C@@H](NC(=O)[C@H](CCC(=O)O)NC(=O)CCC(=O)NCCCOCCOCCOCCCNC(=O)CN2CCN(CC(=O)O)CCN(CC(=O)O)CCN(CC(=O)O)CC2)CSCc2cccc(c2)CSC[C@@H](C(=O)N[C@@H](CC(=O)O)C(=O)N[C@@H](Cc2c[nH]cn2)C(=O)N[C@@H](Cc2ccccc2)C(=O)N[C@@H](CCCNC(=N)N)C(=O)N[C@@H](CC(=O)O)C(N)=O)NC(=O)[C@H](Cc2ccccc2)NC(=O)[C@H](CCC(=O)O)NC1=O, also called 3BP-3173) [DOTA-Ttds-Glu-[Cys(3MeBn)-Pro-Pro-Thr-Glu-Phe-Cys]-Asp-His-Phe-Arg-Asp-NH2]	7.1 pIC50 and 8 pIC50	7.1 pIC50 and 8 pIC50
{DOTA}-[Ttds]FCPPTEFCDHFRD-NH2 (linker 3-9 via mXylylene; SMILES C[C@@H](O)[C@@H]1NC(=O)[C@@H]2CCCN2C(=O)[C@@H]2CCCN2C(=O)[C@@H](NC(=O)[C@H](Cc2ccccc2)NC(=O)CCC(=O)NCCCOCCOCCOCCCNC(=O)CN2CCN(CC(=O)O)CCN(CC(=O)O)CCN(CC(=O)O)CC2)CSCc2cccc(c2)CSC[C@@H](C(=O)N[C@@H](CC(=O)O)C(=O)N[C@@H](Cc2c[nH]cn2)C(=O)N[C@@H](Cc2ccccc2)C(=O)N[C@@H](CCCNC(=N)N)C(=O)N[C@@H](CC(=O)O)C(N)=O)NC(=O)[C@H](Cc2ccccc2)NC(=O)[C@H](CCC(=O)O)NC1=O, also called 3BP-3171) [DOTA-Ttds-Phe-[Cys(3MeBn)-Pro-Pro-Thr-Glu-Phe-Cys]-Asp-His-Phe-Arg-Asp-NH2]	7.1 pIC50 and 8 pIC50	7.1 pIC50 and 8 pIC50
Ac-MCP[dP]TEFCDHFRD-NH2 (linker 2-8 via mXylylene; SMILES CSCC[C@H](NC(C)=O)C(=O)N[C@H]1CSCc2cccc(c2)CSC[C@@H](C(=O)N[C@@H](CC(=O)O)C(=O)N[C@@H](Cc2c[nH]cn2)C(=O)N[C@@H](Cc2ccccc2)C(=O)N[C@@H](CCCNC(=N)N)C(=O)N[C@@H](CC(=O)O)C(N)=O)NC(=O)[C@H](Cc2ccccc2)NC(=O)[C@H](CCC(=O)O)NC(=O)[C@H]([C@@H](C)O)NC(=O)[C@H]2CCCN2C(=O)[C@@H]2CCCN2C1=O, also called 3BP-3177) [Ac-Met-[Cys(3MeBn)-Pro-pro-Thr-Glu-Phe-Cys]-Asp-His-Phe-Arg-Asp-NH2]	7.1 pIC50 and 8 pIC50	7.1 pIC50 and 8 pIC50
Ac-MCPP[dT]EFCDHFRD-NH2 (linker 2-8 via mXylylene; SMILES CSCC[C@H](NC(C)=O)C(=O)N[C@H]1CSCc2cccc(c2)CSC[C@@H](C(=O)N[C@@H](CC(=O)O)C(=O)N[C@@H](Cc2c[nH]cn2)C(=O)N[C@@H](Cc2ccccc2)C(=O)N[C@@H](CCCNC(=N)N)C(=O)N[C@@H](CC(=O)O)C(N)=O)NC(=O)[C@H](Cc2ccccc2)NC(=O)[C@H](CCC(=O)O)NC(=O)[C@@H]([C@H](C)O)NC(=O)[C@@H]2CCCN2C(=O)[C@@H]2CCCN2C1=O, also called 3BP-3178) [Ac-Met-[Cys(3MeBn)-Pro-Pro-thr-Glu-Phe-Cys]-Asp-His-Phe-Arg-Asp-NH2]	7.1 pIC50 and 8 pIC50	7.1 pIC50 and 8 pIC50
Ac-MCPPT[dE]FCDHFRD-NH2 (linker 2-8 via mXylylene; SMILES CSCC[C@H](NC(C)=O)C(=O)N[C@H]1CSCc2cccc(c2)CSC[C@@H](C(=O)N[C@@H](CC(=O)O)C(=O)N[C@@H](Cc2c[nH]cn2)C(=O)N[C@@H](Cc2ccccc2)C(=O)N[C@@H](CCCNC(=N)N)C(=O)N[C@@H](CC(=O)O)C(N)=O)NC(=O)[C@H](Cc2ccccc2)NC(=O)[C@@H](CCC(=O)O)NC(=O)[C@H]([C@@H](C)O)NC(=O)[C@@H]2CCCN2C(=O)[C@@H]2CCCN2C1=O, also called 3BP-3179) [Ac-Met-[Cys(3MeBn)-Pro-Pro-Thr-glu-Phe-Cys]-Asp-His-Phe-Arg-Asp-NH2]	7.1 pIC50 and 8 pIC50	6.1 pIC50 and 7 pIC50
Ac-M[dC]PPTEF[dC]DHFRD-NH2 (linker 2-8 via mXylylene; SMILES CSCC[C@H](NC(C)=O)C(=O)N[C@@H]1CSCc2cccc(c2)CSC[C@H](C(=O)N[C@@H](CC(=O)O)C(=O)N[C@@H](Cc2c[nH]cn2)C(=O)N[C@@H](Cc2ccccc2)C(=O)N[C@@H](CCCNC(=N)N)C(=O)N[C@@H](CC(=O)O)C(N)=O)NC(=O)[C@H](Cc2ccccc2)NC(=O)[C@H](CCC(=O)O)NC(=O)[C@H]([C@@H](C)O)NC(=O)[C@@H]2CCCN2C(=O)[C@@H]2CCCN2C1=O, also called 3BP-3181) [Ac-Met-[cys(3MeBn)-Pro-Pro-Thr-Glu-Phe-cys]-Asp-His-Phe-Arg-Asp-NH2]	7.1 pIC50 and 8 pIC50	7.1 pIC50 and 8 pIC50
Ac-MCPPTEF[dC]DHFRD-NH2 (linker 2-8 via mXylylene; SMILES CSCC[C@H](NC(C)=O)C(=O)N[C@H]1CSCc2cccc(c2)CSC[C@H](C(=O)N[C@@H](CC(=O)O)C(=O)N[C@@H](Cc2c[nH]cn2)C(=O)N[C@@H](Cc2ccccc2)C(=O)N[C@@H](CCCNC(=N)N)C(=O)N[C@@H](CC(=O)O)C(N)=O)NC(=O)[C@H](Cc2ccccc2)NC(=O)[C@H](CCC(=O)O)NC(=O)[C@H]([C@@H](C)O)NC(=O)[C@@H]2CCCN2C(=O)[C@@H]2CCCN2C1=O, also called 3BP-3182) [Ac-Met-[Cys(3MeBn)-Pro-Pro-Thr-Glu-Phe-cys]-Asp-His-Phe-Arg-Asp-NH2]	7.1 pIC50 and 8 pIC50	7.1 pIC50 and 8 pIC50
Ac-MCPPTEFC[dD]HFRD-NH2 (linker 2-8 via mXylylene; SMILES CSCC[C@H](NC(C)=O)C(=O)N[C@H]1CSCc2cccc(c2)CSC[C@@H](C(=O)N[C@H](CC(=O)O)C(=O)N[C@@H](Cc2c[nH]cn2)C(=O)N[C@@H](Cc2ccccc2)C(=O)N[C@@H](CCCNC(=N)N)C(=O)N[C@@H](CC(=O)O)C(N)=O)NC(=O)[C@H](Cc2ccccc2)NC(=O)[C@H](CCC(=O)O)NC(=O)[C@H]([C@@H](C)O)NC(=O)[C@@H]2CCCN2C(=O)[C@@H]2CCCN2C1=O, also called 3BP-3183) [Ac-Met-[Cys(3MeBn)-Pro-Pro-Thr-Glu-Phe-Cys]-asp-His-Phe-Arg-Asp-NH2]	7.1 pIC50 and 8 pIC50	7.1 pIC50 and 8 pIC50
